Experimental data from PMC3806636.

Molecular target: Atg17 (Lachancea thermotolerans), crystallised construct (Lachancea thermotolerans)
Assay: SEC-MALS

Atg17 (Lachancea thermotolerans), crystallised construct (natural protein)
stoichiometry N: 2
